This data set has as its target T1, SfiI (Streptomyces fimbriatus) (UniProt O52512).
T1 sequence: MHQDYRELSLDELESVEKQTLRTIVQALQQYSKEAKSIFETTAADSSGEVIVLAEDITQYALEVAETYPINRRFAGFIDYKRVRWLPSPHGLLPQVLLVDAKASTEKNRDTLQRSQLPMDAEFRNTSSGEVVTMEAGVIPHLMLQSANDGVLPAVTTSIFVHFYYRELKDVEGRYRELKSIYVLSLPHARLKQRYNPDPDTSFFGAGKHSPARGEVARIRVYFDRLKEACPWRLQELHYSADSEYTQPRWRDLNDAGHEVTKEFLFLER
In words: cleavage_in_vitro. Particulars: yield of in vitro translation with T7 RNA polymerase; NEBuffer 2, 10 mM MgCl2, 50 C 60 min.

This passage reports activity results from patent US20030119027.

A value given as a limit tells only on which side of the number the result lay.

Sequence “GGCCNNNNNGGCC (double strand) [SfiI site (Adenovirus-2 DNA)]” yielded an activity greater than 33000 units/ml.
